Data on one molecule can be found in US20210032664, “ENGINEERED MEGANUCLEASES WITH RECOGNITION SEQUENCES FOUND IN THE HUMAN BETA-2 MICROGLOBULIN GENE” (Precision Biosciences, Inc., published 2021).

What all share (assay): cell_activity; human T cells, 1 ug mRNA, day 3
Holding throughout (conditions): tags: N-terminal SV40 NLS

In one data set the target is T1, B2M 13-14x.93 QE (Artificial Sequence).
T1 chain: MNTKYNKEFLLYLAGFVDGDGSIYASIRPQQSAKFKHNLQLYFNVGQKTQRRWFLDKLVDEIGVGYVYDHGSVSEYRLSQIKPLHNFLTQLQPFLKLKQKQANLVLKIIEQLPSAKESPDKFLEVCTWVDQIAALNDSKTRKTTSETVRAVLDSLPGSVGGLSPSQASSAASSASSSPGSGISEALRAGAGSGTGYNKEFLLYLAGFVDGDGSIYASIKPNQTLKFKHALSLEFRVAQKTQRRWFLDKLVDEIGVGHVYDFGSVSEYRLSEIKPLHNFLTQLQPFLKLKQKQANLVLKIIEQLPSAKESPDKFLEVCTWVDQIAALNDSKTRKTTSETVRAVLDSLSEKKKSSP
How it is done: (§1) To test these variants of B2M 13-14x.93, donor human T cells were stimulated with anti-CD3 and anti-CD28 antibodies for 3 days, then electroporated with mRNA encoding a given B2M 13-14 meganuclease (1 μg) using the Amaxa 4D-Nucleofector (Lonza) according to the manufacturer's instructions. At 3 days post-electroporation, cells were stained with an antibody recognizing β-2 microglobulin (BD Biosciences) and analyzed by flow cytometry.

The next data set has as its target T2, B2M 13-14x.93 EQY66 (Artificial Sequence).
T2 chain: T1 chain with E271Q
As for the experimental part:
as §1

Another data set deals with T3, B2M 13-14x.93 EQK66 (Artificial Sequence).
T3 chain: T1 chain with Y66K, Q80E, E271Q
How it is done: as §1

The next data set concerns the target T4, B2M 13-14x.93 QQY66 (Artificial Sequence).
T4 chain: T1 chain with E271Q
As for the experimental part:
as §1

A further data set concerns the target T5, B2M 13-14x.93 EQ (Artificial Sequence).
T5 chain: T1 chain with Q80E, E271Q
How it is done: as §1

For another data set, the target named is T6, B2M 13-14x.93 EE (Artificial Sequence).
T6 chain: T1 chain with Q80E
As for the experimental part:
as §1

The next data set has as its target T7, B2M 13-14x.93 EQR66 (Artificial Sequence).
T7 chain: T1 chain with Y66R, Q80E, E271Q
As for the experimental part: as §1

Positions count from the first letter of the chain named. In names and notes the source's numbering stands.

B1: B2M 13-14 recognition sequence (dsDNA)
DNA 1: CTATCTCTTGTACTACACTGAA
DNA 2: TTCAGTGTAGTACAAGAGATAG
Consider B1, for which the activity was determined as 37 % B2M-negative with B2M 13-14x.93 QE; 21.4 % B2M-negative with B2M 13-14x.93 EQY66; 6.81 % B2M-negative with B2M 13-14x.93 EQK66; 19.2 % B2M-negative with B2M 13-14x.93 QQY66; 5.13 % B2M-negative with B2M 13-14x.93 EQ; 18.3 % B2M-negative in the data set with B2M 13-14x.93 EE. In the data set with B2M 13-14x.93 EQR66, this molecule gave an activity of 5.12 % B2M-negative.
